Results taken from patent US20090041679A1.
Like-named read-outs stand apart in the source and are kept apart here.

How the values were obtained:
[1] = molecular target: purified H5N1 HA (influenza A virus H5N1)
[2] = molecular target: purified H5N1 HA (influenza A virus H5N1); remark: listed apart in the source

| Binder | Kd [1] | Kd [2] |
| --- | --- | --- |
| BF1-1 (antibody, V domains shown) VH: EVQLVQSGPGLVKPSETLSLTCTVSGSSMRTHYWTWIRQPPGKGLEWIGNIYYSGSTDYNPSLKSRVTISVDTSKNQFSLKLSSVTAADTAVYFCARTKHFDILPGGVFDMWGRGTTVTVSS VL: SYELTQLPSVSVSPGQTATITCSGDRLGDKYACWYQQKPGQSPVLVIFQDTKRPSGIPERFSGSNSGNTATLTISGTQAMDEADYYCQAWDSNIGVFGGGTKLTVL | 20.3 nM | – |
| BF1-10 (antibody, V domains shown) VH: QVQLQESGPGLVKPSQTLSLTCAVSGGSISSRGYYWSWIRQPPGKGLEWIGYIFYTGGTDYNPSLKSRITISRDTPKNQISLNLSSVTAADTAVYYCARVVDGSSGYHHYYFDYWGQGTLVTVSS VL: DIQMTQSPASLAVSLGQRATISYRASKSVSTSGYSYMHWNQQKPGQPPRLLIYLVSNLESGVPARFSGSGSGTDFTLNIHPVEEEDAATYYCQHIRELTRSEGGPSWRSN | 10.8 nM | 10 to 50 nM |
| BF1-19 (antibody, V domains shown) VH: QVQLQESGPGLVKPSETLSLTCTVSGSSMRTHYWTWIRQPPGKGLEWIGNIYYSGSTDYNPSLKSRVTISVDTSKNQFSLKLSSVTAADTAVYFCARTKHFDILPGGVFDMWGRGTTVSS VL: DIVMTQSPASLAVSLGQRATISYRASKSVSTSGYSYMHWNQQKPGQPPRLLIYLVSNLESGVPARFSGSGSGTDFTLNIHPVEEEDAATYYCQHIRELTRSEGGPKWISN | 48.2 nM | 10 to 50 nM |
